The target of one assay is T1, human GLP-1 receptor (human, UniProt P43220 24-463).
T1 construct: whole, on cells; also called hGLP-1R; human glucagon-like peptide-1 receptor
Briefly: SPA competition vs [125I]-GLP-1, hGLP-1R membranes. The procedure, abridged:
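Kᵢ values are geometric means (SEM) over replicates run on separate days, derived from IC₅₀ of four-parameter curve fits. Buffer: HEPES 25 mM pH 7.4 with CaCl₂ 2.5 mM, MgCl₂ 1 mM, bacitracin 0.1%, TWEEN-20 0.003%, EDTA-free protease inhibitors.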

A further assay has as its target T2, human GIP receptor (human, UniProt P48546 22-466).
T2 construct: whole, on cells; also called hGIPR; human glucose-dependent insulinotropic polypeptide receptor
T2 sequence (looked up): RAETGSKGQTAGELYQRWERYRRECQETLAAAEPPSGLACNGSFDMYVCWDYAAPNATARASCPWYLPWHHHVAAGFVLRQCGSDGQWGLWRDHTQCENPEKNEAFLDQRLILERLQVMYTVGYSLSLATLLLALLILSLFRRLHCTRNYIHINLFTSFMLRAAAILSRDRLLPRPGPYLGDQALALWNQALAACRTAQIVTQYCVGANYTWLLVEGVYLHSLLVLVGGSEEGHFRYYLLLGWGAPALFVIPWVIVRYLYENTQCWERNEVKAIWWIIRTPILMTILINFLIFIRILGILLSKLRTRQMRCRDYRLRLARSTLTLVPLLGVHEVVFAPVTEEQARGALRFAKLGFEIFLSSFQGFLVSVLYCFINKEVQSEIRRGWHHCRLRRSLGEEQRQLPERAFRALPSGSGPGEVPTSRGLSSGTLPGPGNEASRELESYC
Briefly: SPA competition vs [125I]-GIP, hGIPR membranes.

In a further assay the target is T3, human glucagon receptor (human, UniProt P47871 26-477).
T3 construct: whole, on cells; also called hGCGR; hGcgR
Briefly: SPA competition vs [125I]-Gcg, hGcgR membranes.

T3 sequence (P47871 26-477): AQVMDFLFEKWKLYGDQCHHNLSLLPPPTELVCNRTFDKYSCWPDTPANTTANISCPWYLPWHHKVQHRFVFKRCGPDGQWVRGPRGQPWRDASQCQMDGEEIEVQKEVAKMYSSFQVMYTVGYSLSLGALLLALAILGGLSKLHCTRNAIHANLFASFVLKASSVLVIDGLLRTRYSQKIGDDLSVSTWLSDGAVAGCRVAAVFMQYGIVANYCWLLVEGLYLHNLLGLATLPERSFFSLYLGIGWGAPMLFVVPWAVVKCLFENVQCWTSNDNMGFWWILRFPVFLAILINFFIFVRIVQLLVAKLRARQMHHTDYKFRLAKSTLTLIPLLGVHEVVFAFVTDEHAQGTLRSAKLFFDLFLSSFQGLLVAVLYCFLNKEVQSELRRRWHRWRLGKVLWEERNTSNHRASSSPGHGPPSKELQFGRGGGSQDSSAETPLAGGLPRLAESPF

B1: Y-Aib-EGT-αMeF(2F)-TSD-4Pal-SI-αMeL-LD-Orn-K((2-[2-(2-Amino-ethoxy)-ethoxy]-acetyl)2-(10-(4-carboxyphenoxy)decanoyl))AQ-Aib-EFI-(D-Glu)-αMeY-LIEGGK((2-[2-(2-Ami … (peptide)
peptide: YXEGTXTSDXSIXLDXKAQXEFIXXLIEGGKSSGAPPPS
modifications: Aib2, αMeF(2F)6, 4Pal10, αMeL13, Orn16, K17(Z1), Aib20, D-Glu24, αMeY25, K31(Z1), C-term NH2; Z1=AEEA2-(10-(4-carboxyphenoxy)decanoyl)
Regarding B1, the inhibition constant (Ki) (usually the equilibrium dissociation constant of an inhibitor or competing ligand from its target) with human GLP-1 receptor was found to be 0.681 nM; in the assay with human GIP receptor, 0.0489 nM; in the assay with human glucagon receptor, 424 nM.

B2: Y-Aib-EGT-αMeF(2F)-TSD-4Pal-SI-αMeL-LD-Orn-K((2-[2-(2-Amino-ethoxy)-ethoxy]-acetyl)-(γ-Glu)-(10-(4-carboxyphenoxy)decanoyl))AQ-Aib-EFI-(D-Glu)-αMeY-LIEGGK((2-[2 … (peptide)
peptide: YXEGTXTSDXSIXLDXKAQXEFIXXLIEGGKSSGAPPPS
modifications: Aib2, αMeF(2F)6, 4Pal10, αMeL13, Orn16, K17(Z1), Aib20, D-Glu24, αMeY25, K31(Z1), C-term NH2; Z1=AEEA-(γ-Glu)-(10-(4-carboxyphenoxy)decanoyl)
With B2, the Ki amounted to 0.638 nM with human GLP-1 receptor, 0.0575 nM with human GIP receptor and 213 nM with human glucagon receptor.

B3: Y-Aib-EGT-αMeF(2F)-TSD-4Pal-SI-αMeL-LD-Orn-K((2-[2-(2-Amino-ethoxy)-ethoxy]-acetyl)-(γ-Glu)-CO-(CH2)14-CH3)AQ-Aib-EFI-(D-Glu)-αMeY-LIEGGK((2-[2-(2-Amino-ethoxy) … (peptide)
peptide: YXEGTXTSDXSIXLDXKAQXEFIXXLIEGGKSSGAPPPS
modifications: Aib2, αMeF(2F)6, 4Pal10, αMeL13, Orn16, K17(Z1), Aib20, D-Glu24, αMeY25, K31(Z1), C-term NH2; Z1=AEEA-(γ-Glu)-CO-(CH2)14-CH3
For B3, the Ki with human GLP-1 receptor worked out at 0.691 nM; with human GIP receptor, 0.0575 nM; in the assay with human glucagon receptor, 0.987 nM.

B4: Y-Aib-EGT-αMeF(2F)-TSDK((2-[2-(2-Amino-ethoxy)-ethoxy]-acetyl)2-(γ-Glu)-CO-(CH2)14-CH3)SI-αMeL-LD-Orn-K((2-[2-(2-Amino-ethoxy)-ethoxy]-acetyl)2-(γ-Glu)-CO-(CH2) … (peptide)
peptide: YXEGTXTSDKSIXLDXKAQXEFIXXLIEGGPSSGAPPPS
modifications: Aib2, αMeF(2F)6, K10(Z1), αMeL13, Orn16, K17(Z1), Aib20, D-Glu24, αMeY25, C-term NH2; Z1=AEEA2-(γ-Glu)-CO-(CH2)14-CH3
Consider B4, for which the inhibition constant Ki came to 0.412 nM with human GLP-1 receptor, 0.0505 nM with human GIP receptor and 0.923 nM with human glucagon receptor.

B5: Y-Aib-EGT-αMeF(2F)-TSD-4Pal-SI-αMeL-LD-Orn-K((2-[2-(2-Amino-ethoxy)-ethoxy]-acetyl)-(γ-Glu)-CO-(CH2)10-CH3)AQ-Aib-EFI-(D-Glu)-αMeY-LIEGGK((2-[2-(2-Amino-ethoxy) … (peptide)
peptide: YXEGTXTSDXSIXLDXKAQXEFIXXLIEGGKSSGAPPPS
modifications: Aib2, αMeF(2F)6, 4Pal10, αMeL13, Orn16, K17(Z1), Aib20, D-Glu24, αMeY25, K31(Z1), C-term NH2; Z1=AEEA-(γ-Glu)-CO-(CH2)10-CH3
On to B5, for which the Ki was found to be 0.286 nM with human GLP-1 receptor, 0.036 nM with human GIP receptor and 17.6 nM with human glucagon receptor.

B6: Y-Aib-EGT-αMeF(2F)-TSD-4Pal-SI-αMeL-LD-Orn-K((2-[2-(2-Amino-ethoxy)-ethoxy]-acetyl)-(γ-Glu)-CO-(CH2)12-CO2H)AQ-Aib-EFI-(D-Glu)-αMeY-LIEGGK((2-[2-(2-Amino-ethoxy … (peptide)
peptide: YXEGTXTSDXSIXLDXKAQXEFIXXLIEGGKSSGAPPPS
modifications: Aib2, αMeF(2F)6, 4Pal10, αMeL13, Orn16, K17(Z1), Aib20, D-Glu24, αMeY25, K31(Z1), C-term NH2; Z1=AEEA-(γ-Glu)-CO-(CH2)12-CO2H
For the molecule B6, the figures for the Ki with human GLP-1 receptor, in the assay with human GIP receptor and in the assay with human glucagon receptor were 1.06 nM, 0.0508 nM and 660 nM, respectively.

B7: Y-Aib-EGT-αMeF(2F)-TSD-4Pal-Aib-I-αMeL-LD-Orn-QAQ-Aib-EFIK((2-[2-(2-Amino-ethoxy)-ethoxy]-acetyl)3-(γ-Glu)-(10-(4-carboxyphenoxy)decanoyl)-αMeY-LIK((2-[2-(2-Ami … (peptide)
peptide: YXEGTXTSDXXIXLDXQAQXEFIKXLIKGGPSSGAPPPS
modifications: Aib2, αMeF(2F)6, 4Pal10, Aib11, αMeL13, Orn16, Aib20, K24(Z1), αMeY25, K28(Z1), C-term NH2; Z1=AEEA3-(γ-Glu)-(10-(4-carboxyphenoxy)decanoyl)
On to B7, for which the Ki with human GLP-1 receptor is 0.352 nM; with human GIP receptor, 0.0261 nM; in the assay with human glucagon receptor, 753 nM.

B8: Y-Aib-EGT-αMeF(2F)-TSD-4Pal-Aib-I-αMeL-LD-Orn-QAQ-Aib-Orn-FIK((2-[2-(2-Amino-ethoxy)-ethoxy]-acetyl)-(γ-Glu)-(2-[2-(2-Amino-ethoxy)-ethoxy]-acetyl)-(γ-Glu)-CO-( … (peptide)
peptide: YXEGTXTSDXXIXLDXQAQXXFIKXLIKGGPSSGAPPPS
modifications: Aib2, αMeF(2F)6, 4Pal10, Aib11, αMeL13, Orn16, Aib20, Orn21, K24(Z1), αMeY25, K28(Z1), C-term NH2; Z1=AEEA-(γ-Glu)-AEEA-(γ-Glu)-CO-(CH2)12-CO2H
Turning to B8, the Ki in the assay with human GLP-1 receptor amounted to 0.268 nM; in the assay with human GIP receptor it was 0.0296 nM; in the assay with human glucagon receptor it was 305 nM.

B9: Y-Aib-EGT-αMeF(2F)-TSD-4Pal-Aib-I-αMeL-LD-Orn-K(((2-[2-(2-Amino-ethoxy)-ethoxy]-acetyl)-Aoc-CO-(CH2)12-CO2H)AQ-Aib-EFI-(D-Glu)-αMeY-LIK(((2-[2-(2-Amino-ethoxy)- … (peptide)
peptide: YXEGTXTSDXXIXLDXKAQXEFIXXLIKGGPSSGAPPPS
modifications: Aib2, αMeF(2F)6, 4Pal10, Aib11, αMeL13, Orn16, K17(Z1), Aib20, D-Glu24, αMeY25, K28(Z1), C-term NH2; Z1=AEEA-Aoc-CO-(CH2)12-CO2H
For the molecule B9, the inhibitory constant (Ki) with human GLP-1 receptor was found to be 1.29 nM; with human GIP receptor, 0.0464 nM; with human glucagon receptor, 304 nM.

B10: Y-Aib-EGT-αMeF(2F)-TSD-4Pal-Aib-I-αMeL-LD-Orn-QAQ-Aib-Orn-FIK((2-[2-(2-Amino-ethoxy)-ethoxy]-acetyl)-(γ-Glu)3-(10-(4-carboxyphenoxy)decanoyl))-αMeY-LIK((2-[2-(2 … (peptide)
peptide: YXEGTXTSDXXIXLDXQAQXXFIKXLIKGGPSSGAPPPS
modifications: Aib2, αMeF(2F)6, 4Pal10, Aib11, αMeL13, Orn16, Aib20, Orn21, K24(Z1), αMeY25, K28(Z1), C-term NH2; Z1=AEEA-(γ-Glu)3-(10-(4-carboxyphenoxy)decanoyl)
Regarding B10, the Ki with human GLP-1 receptor was found to be 0.217 nM; with human GIP receptor, 0.0714 nM; with human glucagon receptor, 73.3 nM.

B11: Y-Aib-EGT-αMeF(2F)-TSD-4Pal-Aib-I-αMeL-LD-Orn-QAQ-Aib-Orn-FIK((2-[2-(2-Amino-ethoxy)-ethoxy]-acetyl)-(γ-Glu)-(2-[2-(2-Amino-ethoxy)-ethoxy]-acetyl)-(γ-Glu)-(10- … (peptide)
peptide: YXEGTXTSDXXIXLDXQAQXXFIKXLIKGGPSSGAPPPS
modifications: Aib2, αMeF(2F)6, 4Pal10, Aib11, αMeL13, Orn16, Aib20, Orn21, K24(Z1), αMeY25, K28(Z1), C-term NH2; Z1=AEEA-(γ-Glu)-AEEA-(γ-Glu)-(10-(4-carboxyphenoxy)decanoyl)
Turning to B11, the Ki in the assay with human GLP-1 receptor was 0.3 nM; with human GIP receptor, 0.0548 nM; with human glucagon receptor, 121 nM.

B12: Y-Aib-EGT-αMeF(2F)-TSD-4Pal-Aib-I-αMeL-LD-Orn-QAQ-Aib-4Pal-FIK((2-[2-(2-Amino-ethoxy)-ethoxy]-acetyl)2-(γ-Glu)-(10-(4-carboxyphenoxy)decanoyl))-αMeY-LIK((2-[2-( … (peptide)
peptide: YXEGTXTSDXXIXLDXQAQXXFIKXLIKGGPSSGAPPPS
modifications: Aib2, αMeF(2F)6, 4Pal10, Aib11, αMeL13, Orn16, Aib20, 4Pal21, K24(Z1), αMeY25, K28(Z1), C-term NH2; Z1=AEEA2-(γ-Glu)-(10-(4-carboxyphenoxy)decanoyl)
As for B12, the Ki amounted to 0.25 nM in the assay with human GLP-1 receptor, 0.0345 nM in the assay with human GIP receptor and 70.1 nM with human glucagon receptor.

B13: Y-Aib-EGT-αMeF(2F)-TSD-4Pal-Aib-I-αMeL-LD-Orn-QAQ-Aib-Orn-FIK(PEG6-(γ-Glu)-(10-(4-carboxyphenoxy)decanoyl))-αMeY-LIK(PEG6-(γ-Glu)-(10-(4-carboxyphenoxy)decanoyl … (peptide)
peptide: YXEGTXTSDXXIXLDXQAQXXFIKXLIKGGPSSGAPPPS
modifications: Aib2, αMeF(2F)6, 4Pal10, Aib11, αMeL13, Orn16, Aib20, Orn21, K24(Z1), αMeY25, K28(Z1), C-term NH2; Z1=PEG6-(γ-Glu)-(10-(4-carboxyphenoxy)decanoyl)
For the molecule B13, the Ki with human GLP-1 receptor came out at 0.0943 nM; in the assay with human GIP receptor, 0.0291 nM; with human glucagon receptor, 269 nM.

B14: Y-Aib-EGT-αMeF(2F)-TSD-4Pal-Aib-I-αMeL-LD-Orn-QAQ-Aib-Orn-FIK(((2-[2-(2-Amino-ethoxy)-ethoxy]-acetyl)-Trx-(γ-Glu)-(10-(4-carboxyphenoxy)decanoyl))-αMeY-LIK(((2- … (peptide)
peptide: YXEGTXTSDXXIXLDXQAQXXFIKXLIKGGPSSGAPPPS
modifications: Aib2, αMeF(2F)6, 4Pal10, Aib11, αMeL13, Orn16, Aib20, Orn21, K24(Z1), αMeY25, K28(Z1), C-term NH2; Z1=AEEA-Trx-(γ-Glu)-(10-(4-carboxyphenoxy)decanoyl)
Consider B14, for which the inhibitory constant (Ki) with human GLP-1 receptor came out at 0.169 nM; with human GIP receptor it was 0.0319 nM; with human glucagon receptor, 162 nM.

B15: Y-Aib-EGT-αMeF(2F)-TSD-4Pal-Aib-I-αMeL-LD-Orn-QAQ-Aib-Orn-FIK(PEG6-(γ-Glu)-CO-(CH2)12-CO2H)-αMeY-LIK(PEG6-(γ-Glu)-CO-(CH2)12-CO2H)GGPSSGAPPPS-NH2 (peptide)
peptide: YXEGTXTSDXXIXLDXQAQXXFIKXLIKGGPSSGAPPPS
modifications: Aib2, αMeF(2F)6, 4Pal10, Aib11, αMeL13, Orn16, Aib20, Orn21, K24(Z1), αMeY25, K28(Z1), C-term NH2; Z1=PEG6-(γ-Glu)-CO-(CH2)12-CO2H
B15: the results for the Ki with human GLP-1 receptor, with human GIP receptor and with human glucagon receptor were 0.2 nM, 0.0199 nM and 342 nM, respectively.

B16: Y-Aib-EGT-αMeF(2F)-TSD-4Pal-Aib-I-αMeL-LD-Orn-QAQ-Aib-Orn-FIK((2-[2-(2-Amino-ethoxy)-ethoxy]-acetyl)2-(γ-Glu)2-CO-(CH2)12-CO2H)-αMeY-LIK((2-[2-(2-Amino-ethoxy)- … (peptide)
peptide: YXEGTXTSDXXIXLDXQAQXXFIKXLIKGGPSSGAPPPS
modifications: Aib2, αMeF(2F)6, 4Pal10, Aib11, αMeL13, Orn16, Aib20, Orn21, K24(Z1), αMeY25, K28(Z1), C-term NH2; Z1=AEEA2-(γ-Glu)2-CO-(CH2)12-CO2H
Take B16: the Ki is 0.343 nM with human GLP-1 receptor, 0.0427 nM in the assay with human GIP receptor and 382 nM in the assay with human glucagon receptor.
